Molecular target: FLAG-PPM1G-YLmut (human) (UniProt O15355)
Experiment: co-IP; anti-FLAG affinity gel (25 μl), 1-2 mg lysate of transiently transfected HEK293H cells, 1 h at 4°C, lysis buffer 50 mM HEPES-KOH pH 7.5, 50 mM KCl, 2 mM MgCl2, 2 mM EGTA, 5% glycerol, 0.5% NP40; partners detected by Western blot; in Figure 3B cells treated with DMSO or PP242 for 2 h

Sequence of UniProt O15355 (O15355 whole entry Y85A/L90A): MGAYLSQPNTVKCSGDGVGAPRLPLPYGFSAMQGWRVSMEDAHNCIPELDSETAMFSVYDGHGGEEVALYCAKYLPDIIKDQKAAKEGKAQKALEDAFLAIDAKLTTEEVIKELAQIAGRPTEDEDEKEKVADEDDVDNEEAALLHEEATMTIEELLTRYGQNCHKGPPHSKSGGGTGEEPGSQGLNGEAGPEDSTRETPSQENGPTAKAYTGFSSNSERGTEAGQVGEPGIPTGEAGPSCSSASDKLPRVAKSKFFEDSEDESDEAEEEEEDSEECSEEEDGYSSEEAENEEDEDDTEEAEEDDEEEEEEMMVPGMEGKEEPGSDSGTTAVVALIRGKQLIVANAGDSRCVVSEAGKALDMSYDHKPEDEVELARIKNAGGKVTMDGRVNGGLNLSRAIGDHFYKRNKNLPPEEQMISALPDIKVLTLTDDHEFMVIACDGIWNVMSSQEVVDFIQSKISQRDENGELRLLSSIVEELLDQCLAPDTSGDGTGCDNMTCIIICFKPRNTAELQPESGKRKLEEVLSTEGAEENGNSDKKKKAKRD

Substance: endogenous eIF4E (from UniProt P06730 1-217) (natural protein)
- percent decrease of binding against wild-type PPM1G: 80%

Reference: paper PMC11306785
